Tests used:
Assay in all cases: SPR; Biacore 3000, 25 °C; fungal protein immobilised on a CM5 chip by amine coupling (300 RU Eno1 and Mp65, 360 RU Als3); RgpA 10-100 nM injected at 20 µl/min; 10 mM HEPES, 150 mM NaCl, 0.005% surfactant, pH 7.4; global fit, 1:1 Langmuir model with baseline drift
[1] = target: C. albicans cell wall mannoprotein 65 (Mp65) (C. albicans) (UniProt Q59XX2)
[2] = target: C. albicans enolase 1 (Eno1) (C. albicans) (UniProt P30575)
[3] = target: C. albicans agglutinin-like sequence protein 3 (Als3), isolated from the hyphal cell wall (C. albicans) (UniProt Q59L12)
Sequence of UniProt Q59L12 (Q59L12 18-1134): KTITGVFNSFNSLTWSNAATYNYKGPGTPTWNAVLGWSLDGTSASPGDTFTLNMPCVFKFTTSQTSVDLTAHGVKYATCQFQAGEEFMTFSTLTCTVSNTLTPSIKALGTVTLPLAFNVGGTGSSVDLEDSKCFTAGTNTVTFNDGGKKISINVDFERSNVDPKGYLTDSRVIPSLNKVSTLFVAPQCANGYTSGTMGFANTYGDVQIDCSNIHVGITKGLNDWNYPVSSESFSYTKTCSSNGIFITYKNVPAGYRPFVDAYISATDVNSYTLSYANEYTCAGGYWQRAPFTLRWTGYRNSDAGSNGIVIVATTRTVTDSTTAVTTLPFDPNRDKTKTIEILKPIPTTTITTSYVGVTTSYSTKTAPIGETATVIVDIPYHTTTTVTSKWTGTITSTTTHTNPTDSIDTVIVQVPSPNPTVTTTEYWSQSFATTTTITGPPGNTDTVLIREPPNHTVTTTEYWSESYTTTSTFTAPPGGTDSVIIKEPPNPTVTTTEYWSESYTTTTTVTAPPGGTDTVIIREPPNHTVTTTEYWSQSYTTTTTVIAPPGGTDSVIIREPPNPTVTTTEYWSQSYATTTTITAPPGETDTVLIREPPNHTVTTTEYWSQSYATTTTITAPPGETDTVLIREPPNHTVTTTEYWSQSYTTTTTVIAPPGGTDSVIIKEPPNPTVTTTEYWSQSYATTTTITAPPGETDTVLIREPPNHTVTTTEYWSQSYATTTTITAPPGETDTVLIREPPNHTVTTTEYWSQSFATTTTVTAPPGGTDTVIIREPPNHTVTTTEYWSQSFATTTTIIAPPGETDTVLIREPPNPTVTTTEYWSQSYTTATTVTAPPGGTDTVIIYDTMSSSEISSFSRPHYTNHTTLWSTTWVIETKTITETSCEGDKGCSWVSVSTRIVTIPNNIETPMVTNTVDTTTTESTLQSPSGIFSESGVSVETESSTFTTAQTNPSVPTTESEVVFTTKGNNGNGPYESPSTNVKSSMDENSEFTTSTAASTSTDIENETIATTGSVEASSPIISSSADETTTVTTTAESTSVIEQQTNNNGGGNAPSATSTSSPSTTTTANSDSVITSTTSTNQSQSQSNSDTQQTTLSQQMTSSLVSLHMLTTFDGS

Sequence of UniProt Q59XX2 (Q59XX2 33-378): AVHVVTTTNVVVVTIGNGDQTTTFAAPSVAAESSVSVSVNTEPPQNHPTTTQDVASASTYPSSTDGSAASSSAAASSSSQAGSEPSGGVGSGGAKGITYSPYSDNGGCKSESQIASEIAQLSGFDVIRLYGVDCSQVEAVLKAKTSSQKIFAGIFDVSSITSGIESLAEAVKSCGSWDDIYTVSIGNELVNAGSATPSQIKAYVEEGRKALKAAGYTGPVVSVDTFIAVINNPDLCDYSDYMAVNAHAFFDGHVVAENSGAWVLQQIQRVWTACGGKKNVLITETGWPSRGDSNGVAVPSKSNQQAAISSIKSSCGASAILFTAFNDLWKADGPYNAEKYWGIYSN
Sequence of UniProt P30575 (P30575 whole entry): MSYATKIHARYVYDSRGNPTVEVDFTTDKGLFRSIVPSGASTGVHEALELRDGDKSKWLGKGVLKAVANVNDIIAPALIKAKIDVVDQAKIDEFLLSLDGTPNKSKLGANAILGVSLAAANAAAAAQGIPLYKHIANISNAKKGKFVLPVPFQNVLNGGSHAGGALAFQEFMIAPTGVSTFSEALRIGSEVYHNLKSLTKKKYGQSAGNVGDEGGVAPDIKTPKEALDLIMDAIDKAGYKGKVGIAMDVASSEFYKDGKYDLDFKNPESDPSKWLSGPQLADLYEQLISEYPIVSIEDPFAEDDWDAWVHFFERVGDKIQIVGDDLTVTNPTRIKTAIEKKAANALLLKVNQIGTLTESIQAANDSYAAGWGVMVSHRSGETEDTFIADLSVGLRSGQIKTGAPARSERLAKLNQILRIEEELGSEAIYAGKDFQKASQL

How did the Kd [1] turn out when “P. gingivalis gingipain RgpA (HRgpA) (from UniProt P28784 228-991) (enzyme)” was run?
The Kd was 9.44 nM.

And the Kd [2]?
The Kd was 2.97 nM.

What about the Kd [3] of the same substance?
Its Kd is 9.96 nM.
